{"source": "paper PMC10874388", "about": "“Cyclic peptides discriminate BCL-2 and its clinical mutants from BCL-XL by engaging a single-residue discrepancy” (Nature Communications, 2024)", "molecules": {"B1": {"name": "cp2-F (peptide)", "peptide": "CPIRYEWDEFCGK(FITC)", "modifications": "linker 1-11 via ADT (ClAc-3) (inferred); reading uncertain; also: modified by ClAc-3, printed as CPIRYEWDEFCG{K(FITC)}", "notes": "also called cp2-FITC; source: synthetic peptide"}, "B2": {"name": "cp2-TAT-8E (peptide)", "peptide": "CPIRYEWDEFCGSGSRKKRRQRRREEEEEEEE", "modifications": "linker 1-11 via c‑ADT; reading uncertain", "notes": "source: synthetic peptide"}, "B3": {"name": "cp3-TAT-8E (peptide)", "peptide": "CPIRYPWDVECGSGSRKKRRQRRREEEEEEEE", "modifications": "linker 1-11 via c‑ADT; reading uncertain", "notes": "source: synthetic peptide"}, "B4": {"name": "cp3-F (peptide)", "peptide": "CPIRYPWDVECGK(FITC)", "modifications": "linker 1-11 via ADT (ClAc-3) (inferred); reading uncertain; also: modified by ClAc-3, printed as CPIRYPWDVECG{K(FITC)}", "notes": "also called cp3-FITC; source: synthetic peptide"}, "B5": {"name": "cp2 (peptide)", "peptide": "CPIRYEWDEFC-NH2", "modifications": "linker 1-11 via c‑ADT″", "notes": "cyclic peptide from the CPXRYXWDXXC phage library screened against BCL-2; source: synthetic peptide"}, "B6": {"name": "cp3 (peptide)", "peptide": "CPIRYPWDVEC-NH2", "modifications": "linker 1-11 via c‑ADT″", "notes": "cyclic peptide from the CPXRYXWDXXC phage library screened against BCL-XL; source: synthetic peptide"}}, "key": {"BCL-XL": {"biological_target": "T1, BCL-XL (Homo sapiens, UniProt Q07817, DEL27-81)", "T1 construct": "human BCL-XL (residues 1–210, with 27–81 and 210–233 removed); vector-borne tag of pET-22b (Ni-NTA purification implies a His tag); made in house; host or cells: E. coli BL21 (DE3)", "assay": "SPR binding assay, BCL-XL", "conditions": "affinity fitting, mean ± SD of three independent experiments, 25 °C", "source_text": "(§1) The DNA fragments encoding human BCL-XL ([…], with […] removed), BCL-w (residues 6–152), MCL-1 (residues 152–308) and BFL-1 (residues 1–151) as previously reported[18] were cloned into a pET-22b vector (Invitrogen), respectively. A chimeric human BCL-2 (including residues 1–50 and 92–207) was constructed, by removing the internal long loop (residues 51–91) and replacing its residues 35–50 with residues 33–48 of BCL-XL to solubilize the protein[14], and then it was cloned into a pET28a-Sumo vector (Invitrogen). All BCL-2 mutants (G101V, F104L, Y103D, D111A) were generated by mutagenic PCR, according to the QuikChange (Stratagene) protocol.\n(§2) SPR assays were performed using a Biacore T200 instrument in running buffer consisting 10 mM PBS, 50 μM EDTA and 0.05% Tween-20 at 25 °C. Biotinylated proteins were immobilized on a CAP sensor chip (Cytiva, 28920234). […] The binding affinities were quantified by the Biacore evaluation software using 1:1 binding model. The reproducibility of the assays was confirmed by performing replicate determinations."}, "MCL-1": {"biological_target": "MCL-1 (Homo sapiens, UniProt Q07820)", "sequence (Q07820 152-308)": "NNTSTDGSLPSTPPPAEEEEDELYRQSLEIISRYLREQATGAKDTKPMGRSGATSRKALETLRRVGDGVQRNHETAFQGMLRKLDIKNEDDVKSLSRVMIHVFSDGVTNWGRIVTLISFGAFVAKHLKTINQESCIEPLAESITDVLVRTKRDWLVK", "assay": "SPR binding assay, MCL-1", "conditions": "NB = no binding", "source_text": "as §1, §2"}, "BFL-1": {"biological_target": "T2, BFL-1 (Homo sapiens, UniProt Q16548)", "T2 construct": "BFL-1 (residues 1–151); vector-borne tag of pET-22b (Ni-NTA purification implies a His tag); made in house; host or cells: E. coli BL21 (DE3)", "T2 sequence (Q16548 1-151)": "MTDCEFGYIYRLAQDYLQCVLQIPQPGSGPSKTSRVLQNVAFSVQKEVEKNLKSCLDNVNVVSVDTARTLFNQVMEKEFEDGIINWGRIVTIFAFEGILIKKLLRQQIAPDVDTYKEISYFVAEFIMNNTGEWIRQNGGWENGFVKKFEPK", "assay": "SPR binding assay, BFL-1", "conditions": "NB = no binding", "source_text": "as §1, §2"}, "[1]": {"biological_target": "T3, human BCL-XL (residues 1-210, with 27-81 and 210-233 removed) (human, UniProt Q07817-1 1-210, 27-81 removed, biotinylated for the SPR assays (sites not given))", "T3 construct": "BCL-XL, human, residues 1-210 with the loop 27-81 removed; source: E. coli BL21 (DE3), purified (Ni-NTA, Superdex 75, RESOURCE Q, Superdex 200)", "T3 sequence (Q07817 other isoform, or with tags, fused parts or gaps 27-81 removed | 27-81 removed)": "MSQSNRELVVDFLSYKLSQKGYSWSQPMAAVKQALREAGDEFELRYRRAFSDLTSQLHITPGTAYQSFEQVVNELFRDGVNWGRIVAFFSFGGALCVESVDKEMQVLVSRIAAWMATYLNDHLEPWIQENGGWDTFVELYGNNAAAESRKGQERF", "assay": "fluorescence polarisation; direct binding: 20 nM FITC-labelled peptide, protein from 60 nM to 1000 nM; 1x PBS pH 7.4, room temperature, 10 min", "conditions": "both partners purified"}, "[2]": {"biological_target": "T4, chimeric human BCL-2 (residues 1-50 and 92-207, residues 35-50 replaced with residues 33-48 of BCL-XL) (human, UniProt P10415 1-34; Q07817-1 33-48; P10415 92-207, biotinylated for the SPR assays (sites not given))", "T4 construct": "BCL-2, human, residues 1-34 (residues 35-50 are replaced, see next part); BCL-XL, human, residues 33-48, replacing residues 35-50 of BCL-2; BCL-2, human, residues 92-207 (internal loop 51-91 removed); also called BCL-2 WT; source: E. coli BL21 (DE3), purified (Ni-NTA, Superdex 75, RESOURCE Q, Superdex 200)", "T4 chain (looked up)": "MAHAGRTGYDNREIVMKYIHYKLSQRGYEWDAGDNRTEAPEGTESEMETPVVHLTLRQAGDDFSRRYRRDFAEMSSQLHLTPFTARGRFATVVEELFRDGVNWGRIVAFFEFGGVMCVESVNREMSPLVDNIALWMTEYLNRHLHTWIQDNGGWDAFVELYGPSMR", "assay": "fluorescence polarisation; direct binding: 20 nM FITC-labelled peptide, protein from 60 nM to 1000 nM; 1x PBS pH 7.4, room temperature, 10 min", "conditions": "both partners purified"}, "[3]": {"biological_target": "T3, human BCL-XL (residues 1-210, with …)", "assay": "SPR; Biacore T200; biotinylated proteins immobilised on a CAP sensor chip, peptides flowed over at 30 uL/min in multiple cycles; 10 mM PBS, 50 uM EDTA, 0.05% Tween-20, 25 °C; 1:1 binding model", "conditions": "both partners purified"}, "[4]": {"biological_target": "T4, chimeric human BCL-2 (residues 1-50 and …)", "assay": "SPR; Biacore T200; biotinylated proteins immobilised on a CAP sensor chip, peptides flowed over at 30 uL/min in multiple cycles; 10 mM PBS, 50 uM EDTA, 0.05% Tween-20, 25 °C; 1:1 binding model", "conditions": "both partners purified"}, "[5]": {"biological_target": "T3, human BCL-XL (residues 1-210, with …)", "assay": "fluorescence polarisation; competition: cp2-F/BCL-2 complexes (20/400 nM) or cp3-F/BCL-XL complexes (20/600 nM) treated with unlabelled peptides from 1.0 nM to 30.0 uM; 1x PBS pH 7.4, room temperature, 10 min; Ki calculated from EC50, one-site competitive model", "conditions": "both partners purified"}, "[6]": {"biological_target": "T4, chimeric human BCL-2 (residues 1-50 and …)", "assay": "fluorescence polarisation; competition: cp2-F/BCL-2 complexes (20/400 nM) or cp3-F/BCL-XL complexes (20/600 nM) treated with unlabelled peptides from 1.0 nM to 30.0 uM; 1x PBS pH 7.4, room temperature, 10 min; Ki calculated from EC50, one-site competitive model", "conditions": "both partners purified"}}, "note": "Starred links: 1 amine or outer side, 2 acyl side, 3 side chain; linkers in the order of their positions; H or OH if unused. Positions of bridges follow the written chain, without caps; N, C: chain ends. Residues, ends and D or L forms follow the SMILES beside them. Primed or numbered codes have the meaning given here. No end group written: not given here. *: point of attachment. X1 = O=C(C[*:2])NCCNC(=O)c1ccc(C2=N[C@H](C(=O)[*:1])CS2)cc1; FITC = O=C1OC2(c3ccc(O)cc3Oc3cc(O)ccc32)c2ccc(NC(=S)*)cc21; c‑ADT″ = 2-aryl-4,5-dihydrothiazole linker; ADT (ClAc-3) = not defined here; c‑ADT = not defined here"}
{"molecule": "C[C@@H]1NC(=O)[C@@H]2CCCN2C(=O)[C@@H]2CSC(=N2)c2ccc(cc2)C(=O)NCCNC(=O)CSC[C@@H](C(=O)NCC(=O)N[C@@H](CO)C(=O)NCC(=O)N[C@@H](CO)C(=O)N[C@@H](CCCNC(=N)N)C(=O)N[C@@H](CCCCN)C(=O)N[C@@H](CCCCN)C(=O)N[C@@H](CCCNC(=N)N)C(=O)N[C@@H](CCCNC(=N)N)C(=O)N[C@@H](CCC(N)=O)C(=O)N[C@@H](CCCNC(=N)N)C(=O)N[C@@H](CCCNC(=N)N)C(=O)N[C@@H](CCCNC(=N)N)C(=O)N[C@@H](CCC(=O)O)C(=O)N[C@@H](CCC(=O)O)C(=O)N[C@@H](CCC(=O)O)C(=O)N[C@@H](CCC(=O)O)C(=O)N[C@@H](CCC(=O)O)C(=O)N[C@@H](CCC(=O)O)C(=O)N[C@@H](CCC(=O)O)C(=O)N[C@@H](CCC(=O)O)C(N)=O)NC(=O)[C@H](CCC(=O)O)NC(=O)[C@H](Cc2ccc(O)cc2)NC(=O)[C@H](CC(=O)O)NC(=O)[C@H](Cc2c[nH]c3ccccc23)NC(=O)CNC(=O)[C@H](Cc2ccc(O)cc2)NC(=O)[C@H](CCCNC(=N)N)NC1=O", "note": "[cp1-TAT-8E] (PARYGWDYECGSGSRKKRRQRRREEEEEEEE-NH2; linker N-10 via X1)", "values": [{"measurement": "Kd", "setting": "BCL-XL", "value": "1170 ± 70", "unit": "nM"}]}
{"molecule": "CC[C@H](C)[C@@H]1NC(=O)[C@@H]2CCCN2C(=O)[C@@H]2CSC(=N2)c2ccc(cc2)C(=O)NCCNC(=O)CSC[C@@H](C(N)=O)NC(=O)[C@H](Cc2ccccc2)NC(=O)[C@H](CCC(=O)O)NC(=O)[C@H](CC(=O)O)NC(=O)[C@H](Cc2c[nH]c3ccccc23)NC(=O)[C@H](CCC(=O)O)NC(=O)[C@H](Cc2ccc(O)cc2)NC(=O)[C@H](CCCNC(=N)N)NC1=O", "note": "[cp2] (PIRYEWDEFC-NH2; linker N-10 via X1)", "values": [{"measurement": "Kd", "setting": "MCL-1", "value": "> 12800", "unit": "nM"}, {"measurement": "Kd", "setting": "BFL-1", "value": "> 12800", "unit": "nM"}]}
{"molecule": "CC[C@H](C)[C@@H]1NC(=O)[C@@H]2CCCN2C(=O)[C@@H]2CSC(=N2)c2ccc(cc2)C(=O)NCCNC(=O)CSC[C@@H](C(N)=O)NC(=O)[C@H](CCC(=O)O)NC(=O)[C@H](C(C)C)NC(=O)[C@H](CC(=O)O)NC(=O)[C@H](Cc2c[nH]c3ccccc23)NC(=O)[C@@H]2CCCN2C(=O)[C@H](Cc2ccc(O)cc2)NC(=O)[C@H](CCCNC(=N)N)NC1=O", "note": "[cp3] (PIRYPWDVEC-NH2; linker N-10 via X1)", "values": [{"measurement": "Kd", "setting": "MCL-1", "value": "> 12800", "unit": "nM"}, {"measurement": "Kd", "setting": "BFL-1", "value": "> 12800", "unit": "nM"}]}
{"molecule": "B1", "values": [{"measurement": "Kd", "setting": "[1]", "value": 810, "unit": "nM"}, {"measurement": "Kd", "setting": "[2]", "value": 97.2, "unit": "nM"}]}
{"molecule": "B2", "values": [{"measurement": "Kd", "setting": "[3]", "value": "130 ± 9", "unit": "nM"}, {"measurement": "Kd", "setting": "[4]", "value": "140 ± 50", "unit": "nM"}]}
{"molecule": "B3", "values": [{"measurement": "Kd", "setting": "[3]", "value": "20 ± 1", "unit": "nM"}, {"measurement": "Kd", "setting": "[4]", "value": "70 ± 10", "unit": "nM"}]}
{"molecule": "B4", "values": [{"measurement": "Kd", "setting": "[1]", "value": 270, "unit": "nM"}, {"measurement": "Kd", "setting": "[2]", "value": 177, "unit": "nM"}]}
{"molecule": "B5", "values": [{"measurement": "Ki", "setting": "[5]", "value": 682, "unit": "nM"}, {"measurement": "Ki", "setting": "[6]", "value": 22.5, "unit": "nM"}]}
{"molecule": "B6", "values": [{"measurement": "Ki", "setting": "[5]", "value": 333, "unit": "nM"}, {"measurement": "Ki", "setting": "[6]", "value": 152, "unit": "nM"}]}
